Reference: patent publication US20110034372A1
Blank lines part the entries; values can stand above or below the substance they belong to.

Tests used:
[1] = target: cell surface GDF-8 binding proteins on L6 myoblasts; assay: I-125 labeled GDF-8 receptor-ligand binding assay on myoblast cells
[2] = target: myostatin mature C-terminal dimer (purified from CHO cell conditioned medium) (UniProt O08689); assay: inhibition of labeled myostatin binding to Act RIIB-transfected COS-7 cells
[3] = target: myostatin mature C-terminal dimer (purified from CHO cell conditioned medium) (UniProt O08689); assay: inhibition of labeled myostatin binding to Act RIIB-transfected COS-7 cells; reference: follistatin Ki of approximately 470 pM

myostatin mature C-terminal dimer (purified from CHO cell conditioned medium), sequence (O08689 268-376 limits assumed): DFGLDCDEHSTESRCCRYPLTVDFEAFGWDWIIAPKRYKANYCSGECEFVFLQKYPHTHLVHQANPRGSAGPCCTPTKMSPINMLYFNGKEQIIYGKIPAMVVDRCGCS
Recombinant human GDF-8 (rhGDF-8) homodimer, sequence (O14793 267-374): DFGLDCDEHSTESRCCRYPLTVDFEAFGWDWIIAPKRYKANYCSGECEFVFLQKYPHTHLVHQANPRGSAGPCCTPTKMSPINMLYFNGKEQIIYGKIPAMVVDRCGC

Kd [1]: 0.37 nM
Substance: Recombinant human GDF-8 (rhGDF-8) homodimer (from UniProt O14793 267-374) (ligand)

Ki [2]: 0.47 nM
Substance: follistatin

Ki, fold relative to the Ki of follistatin [3]: 50 fold
Substance: myostatin prodomain peptide (purified from CHO cell conditioned medium) (from UniProt O08689 25-267)
